Laboratory results taken from PMC3724922 (PLoS ONE, 2013).
Numbering of substitutions follows the chain as printed. Names may count otherwise.

B1: laforin wild type, recombinant, no epitope tag (enzyme, human, UniProt O95278 1-331, looked up)
chain: MRFRFGVVVPPAVAGARPELLVVGSRPELGRWEPRGAVRLRPAGTAAGDGALALQEPGLWLGEVELAAEEAAQDGAEPGRVDTFWYKFLKREPGGELSWEGNGPHHDRCCTYNENNLVDGVYCLPIGHWIEATGHTNEMKHTTDFYFNIAGHQAMHYSRILPNIWLGSCPRQVEHVTIKLKHELGITAVMNFQTEWDIVQNSSGCNRYPEPMTPDTMIKLYREEGLAYIWMPTPDMSTEGRVQMLPQAVCLLHALLEKGHIVYVHCNAGVGRSTAAVCGWLQYVMGWNLRKVQYFLMAKRPAVYIDEEALARAQEDFFQKFGKVRSSVCSL
notes: laforin, human, a 331 amino acid protein encoded by EPM2A; amplified from pEG202-laforin into pET21b+ (NdeI, NotI); also called laforin WT; wt laforin; source: E. coli BL21 (RIL), pET21b+-laforin, purified (amylose resin)
B2: laforin C109S/110S, recombinant, no epitope tag (enzyme, human, UniProt O95278 1-331, looked up)
chain: B1 chain with C109S, C110S
notes: laforin, human, 331 amino acids (EPM2A), double mutant C109S/110S; source: E. coli BL21 (RIL), pET21b+, purified (amylose resin)
B3: laforin C123S, recombinant, no epitope tag (enzyme, human, UniProt O95278 1-331, looked up)
chain: B1 chain with C123S
notes: laforin, human, 331 amino acids (EPM2A), mutant C123S; source: E. coli BL21 (RIL), pET21b+, purified (amylose resin)
B4: laforin C169S, recombinant, no epitope tag (enzyme, human, UniProt O95278 1-331, looked up)
chain: B1 chain with C169S
notes: laforin, human, 331 amino acids (EPM2A), mutant C169S; source: E. coli BL21 (RIL), pET21b+, purified (amylose resin)
B5: laforin C205S, recombinant, no epitope tag (enzyme, human, UniProt O95278 1-331, looked up)
chain: B1 chain with C205S
notes: laforin, human, 331 amino acids (EPM2A), mutant C205S; source: E. coli BL21 (RIL), pET21b+, purified (amylose resin)
B6: laforin C250S, recombinant, no epitope tag (enzyme, human, UniProt O95278 1-331, looked up)
chain: B1 chain with C250S
notes: laforin, human, 331 amino acids (EPM2A), mutant C250S; source: E. coli BL21 (RIL), pET21b+, purified (amylose resin)
B7: laforin C266S, recombinant, no epitope tag (enzyme, human, UniProt O95278 1-331, looked up)
chain: B1 chain with C266S
notes: laforin, human, 331 amino acids (EPM2A), catalytic cysteine mutant C266S; source: E. coli BL21 (RIL), pET21b+, purified (amylose resin)
B8: wild type laforin with an amino-terminal HIS6 epitope (enzyme, human, UniProt O95278 1-331, looked up)
chain: B1 chain
notes: laforin, human, 331 amino acids (EPM2A); The plasmid of the His6 constructs is not described in the methods; also called laforin-WT; WT; not shown: His6, N-terminal, kept

Target: the molecule itself
Experiment: native gel or EMSA; purified recombinant proteins incubated with 10 mM H2O2, then non-reducing, non-denaturing electrophoresis, anti-laforin immunoblot

Binding result, binds:
B1

Target: the molecule itself
Experiment: native gel or EMSA; purified recombinant proteins, non-reducing, non-denaturing electrophoresis (SDS- and DTT-free loading buffer), immunoblot with anti-laforin or anti-HIS antibody; self-association, monomer and dimer bands

Binding result, binds:
B2
B3
B4
B5
B6
B7
B8
